The target in data set [1] is T1, RrA (Rhodospirillum rubrum, UniProt Q2RMX1, Y21F).
T1 construct: gene Rru_A3730; full length, 172 residues, Lys149 natural variant (Glu149 in the first report); synthetic gene in pET15b, N-terminal His6 tag removed by TEV protease, expressed in E. coli BL21(DE3) RIPL; homotetramer, active site completed by Tyr21 and Asn26 of another protomer
As to the kind of experiment: X-ray crystal structure, […] Å. Format: binding. The conditions noted are these: active site, three of four protomers; also 8up3 (co-purified L-Asp in some protomers).

The target in data set [2] is T2, RrA (Rhodospirillum rubrum, UniProt Q2RMX1).
T2 construct: gene Rru_A3730; full length, 172 residues, Lys149 natural variant (Glu149 in the first report); synthetic gene in pET15b, N-terminal His6 tag removed by TEV protease, expressed in E. coli BL21(DE3) RIPL; homotetramer, active site completed by Tyr21 and Asn26 of another protomer
T2 sequence (Q2RMX1 1-172): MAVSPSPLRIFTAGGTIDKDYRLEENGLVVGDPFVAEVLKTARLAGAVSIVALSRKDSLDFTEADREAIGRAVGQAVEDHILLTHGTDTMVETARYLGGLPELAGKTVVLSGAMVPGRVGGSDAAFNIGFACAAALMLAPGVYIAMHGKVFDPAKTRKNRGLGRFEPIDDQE
In words: nanoDSF back-reflection, aggregation onset. Format: binding. Particulars: 20 mM ligand, 0.1 M Na-citrate pH 5.0, 0.2 M NaCl; 42.3 °C without ligand. (In general: Differential scanning fluorimetry follows unfolding on heating by fluorescence.)

In data set [3] the target is RrA(K19A) (Rhodospirillum rubrum). In words: crystal structure; hanging drops, 293 K, protein 19-21 mg/mL in the standard buffer, with or without L-Asp; tetramer as a dimer of tight dimers, in the asymmetric unit or made by crystal symmetry.
Data set [4] shares this target. As to the kind of experiment: dynamic light scattering; protein at 0.22-1.1 mM in the standard buffer (50 mM HEPES, 200 mM NaCl, pH 7), 20°C, DynaPro Nanostar; proteins modelled as globular; oligomer in solution.
For data set [5], the target named is RrA(K19E) (Rhodospirillum rubrum). As to the kind of experiment: crystal structure; hanging drops, 293 K, protein 19-21 mg/mL in the standard buffer, with or without L-Asp; tetramer as a dimer of tight dimers, in the asymmetric unit or made by crystal symmetry.
Data set [6] has the same target. As to the kind of experiment: dynamic light scattering; protein at 0.22-1.1 mM in the standard buffer (50 mM HEPES, 200 mM NaCl, pH 7), 20°C, DynaPro Nanostar; proteins modelled as globular; oligomer in solution.
The target of data set [7] is RrA(K19Q) (Rhodospirillum rubrum). As to the kind of experiment: crystal structure; hanging drops, 293 K, protein 19-21 mg/mL in the standard buffer, with or without L-Asp; tetramer as a dimer of tight dimers, in the asymmetric unit or made by crystal symmetry.
Data set [8] shares this target. In words: dynamic light scattering; protein at 0.22-1.1 mM in the standard buffer (50 mM HEPES, 200 mM NaCl, pH 7), 20°C, DynaPro Nanostar; proteins modelled as globular; oligomer in solution.
For data set [9], the target named is RrA(K158M) (Rhodospirillum rubrum). As to the kind of experiment: crystal structure; hanging drops, 293 K, protein 19-21 mg/mL in the standard buffer, with or without L-Asp; tetramer as a dimer of tight dimers, in the asymmetric unit or made by crystal symmetry.
Data set [10] has the same target. As to the kind of experiment: dynamic light scattering; protein at 0.22-1.1 mM in the standard buffer (50 mM HEPES, 200 mM NaCl, pH 7), 20°C, DynaPro Nanostar; proteins modelled as globular; oligomer in solution.
For data set [11], the target named is RrA(Y21A) (Rhodospirillum rubrum). In words: crystal structure; hanging drops, 293 K, protein 19-21 mg/mL in the standard buffer, with or without L-Asp; tetramer as a dimer of tight dimers, in the asymmetric unit or made by crystal symmetry.
Data set [12] has the same target. In words: dynamic light scattering; protein at 0.22-1.1 mM in the standard buffer (50 mM HEPES, 200 mM NaCl, pH 7), 20°C, DynaPro Nanostar; proteins modelled as globular; oligomer in solution.
Data set [13] concerns the target RrA(Y21F) (Rhodospirillum rubrum). In words: crystal structure; hanging drops, 293 K, protein 19-21 mg/mL in the standard buffer, with or without L-Asp; tetramer as a dimer of tight dimers, in the asymmetric unit or made by crystal symmetry.
The target is the same in data set [14]. In words: dynamic light scattering; protein at 0.22-1.1 mM in the standard buffer (50 mM HEPES, 200 mM NaCl, pH 7), 20°C, DynaPro Nanostar; proteins modelled as globular; oligomer in solution.
Substrate in data set [15]: NC(=O)C[C@H](N)C(=O)O
In words: ammonia release by Nessler's reagent, A480; Lineweaver-Burk. In kind it is biochemical, Rhodospirillum rubrum. Particulars: PBS pH 7.4, 20 °C, substrate inhibition above 5 mM.

Data set [16] concerns the molecule itself. As to the kind of experiment: mass photometry; RrA(wt) at 25 nM and 65 nM in the standard buffer (50 mM HEPES, 200 mM NaCl, pH 7), 20°C, Refeyn TwoMP; minor lower-mass peak only in the 25 nM sample.
Data set [17] concerns the molecule itself. In words: dynamic light scattering; protein at 0.22-1.1 mM in the standard buffer (50 mM HEPES, 200 mM NaCl, pH 7), 20°C, DynaPro Nanostar; proteins modelled as globular; oligomer in solution.

What is called stoichiometry N is the number of molecules, sites or subunits per partner or assembly. As a reminder, the Km is the substrate concentration at which the rate is half of its maximum. The kcat is the number of substrate molecules converted per active site and unit of time at saturation.

T1 sequence (Q2RMX1 entry or part of it Y21F): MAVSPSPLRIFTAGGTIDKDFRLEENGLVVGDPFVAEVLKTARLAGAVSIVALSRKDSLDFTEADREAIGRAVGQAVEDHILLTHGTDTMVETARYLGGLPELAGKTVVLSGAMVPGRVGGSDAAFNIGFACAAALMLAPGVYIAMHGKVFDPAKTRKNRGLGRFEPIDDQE

Turning to `N[C@@H](CC(=O)O)C(=O)O` [L‐Asp], at RrA [1], the “X-ray crystal structure, 1.90 Å” value was “the ligand was present in three out of four protomers”. Besides, at RrA [2], the T agg stood at 61.3 °C.
Consider `N[C@@H](CCC(=O)O)C(=O)O` [L‐Glu], for which the T agg on RrA [2] stood at 61.5 °C.
As for RrA(K19A) (enzyme), the stoichiometry N in data set [3] and in data set [4] was 4 each time.
On to RrA(K19E) (enzyme), for which the stoichiometry N in data set [5] and in data set [6] was 4 throughout.
As for RrA(K19Q) (enzyme), the stoichiometry N in [7] and in data set [8] was 4 in each case.
Take RrA(K158M) (enzyme): the stoichiometry N in [9] and in data set [10] was 4 in each case.
Take RrA(Y21A) (enzyme): the stoichiometry N in data set [11] and in [12] was 4 each time.
Regarding RrA(Y21F) (enzyme), the stoichiometry N in [13] and in data set [14] was 4 in each case.

B1: RrA(wt), short-chain L-asparaginase from Rhodospirillum rubrum (enzyme, UniProt Q2RMX1 1-172, looked up)
chain: T2 sequence (Q2RMX1 1-172)
notes: L-asparaginase RrA of Rhodospirillum rubrum, synthetic gene of GenBank QXG80441.1; protomer of 172 residues (Met1 traced in the structure); the GenBank entry and the PDB entries hold; source: E. coli BL21(DE3) RIPL, pET15b, purified (HisTrap, TEV cleavage, second HisTrap flow-through, Superdex 75); not shown: His6, N-terminal, cleaved
As for B1, in data set [15], the Km was determined as 3.6 ± 0.3 mM and the kcat is 58.2 ± 3.0 s⁻¹. Besides, the “stoichiometry N” value in [16] was found to be 2. Besides, the “stoichiometry N” value in [17] was found to be 4.

These data come from publication PMC10949315, “RrA, an enzyme from Rhodospirillum rubrum, is a prototype of a new family of short‐chain L‐asparaginases” (Protein Science : A Publication of the Protein Society, 2024).
